Laboratory results from patent US20160074488A1 (UNIVERSITY OF CHICAGO, published 2016).

B1: Q11 β-sheet fibrillizing peptide (assembled as Q11 nanofibers, gels or microgels) (peptide)
peptide: QQKFQFQFEQQ
notes: Synthetic peptide; stands in the assays as a supramolecular nanofiber of many copies; also called Q11 gels; Q11 microgels
B2: Tryptophan-terminated βTail (peptide)
peptide: WGSGSMALKVELEKLKSELVVLHSELHKLKSEL
notes: Synthetic peptide; also called W-βTail; W-βT
B3: βTail peptide (peptide)
peptide: MALKVELEKLKSELVVLHSELHKLKSEL
B4: HK-Q11 β-sheet fibrillizing peptide (nanofibers) (peptide)
peptide: QQKFQFQFHQQ
notes: Synthetic peptide assembled into nanofibers

Columns and labels:
[1] = target: T1, βTail-cutinase (fusion of βTail and the fungal enzyme cutinase); assay: loss of protein from the supernatant (µBCA)
T1 construct: also called βT-cut

[2] = target: the molecule itself; assay: circular dichroism (FIGS. 1B-C)
[3] = target: gold-labeled streptavidin (streptavidin-5 nm gold particles, Invitrogen cat. # A32360) (UniProt P22629 37-163, limits assumed, bound to 5 nm gold particles); assay: gold TEM
Chain of gold-labeled streptavidin (streptavidin-5 nm gold particles, Invitrogen cat. # A32360) (P22629 37-163 limits assumed, one chain of several): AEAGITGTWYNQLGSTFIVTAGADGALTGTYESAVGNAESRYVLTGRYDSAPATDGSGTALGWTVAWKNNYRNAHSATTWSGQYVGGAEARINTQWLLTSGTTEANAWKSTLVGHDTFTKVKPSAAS

[4] = target: B1; assay: loss of tryptophan fluorescence from the supernatant
[5] = target: B1; assay: circular dichroism
[6] = target: the molecule itself; assay: TEM and thioflavin T fluorescence

B1
binding result [1]: binds | binding result [2]: binds | binding result [3]: no binding

B2
binding result [4]: binds

B3
binding result [2]: binds | binding result [5]: binds

B4
binding result [6]: binds
